Source: patent publication US20040067903A1 (published 2004)

Assays:
Test in all cases: GST pull-down from GDP+AlF4- treated human platelet lysate, western blot
[1] = molecular target: T1, Gαs (endogenous, human platelet lysate) (human, UniProt P63092 2-394)
T1 construct: mature
Protocol: (§1) Bound antibody was detected using goat […] (BioRad, Hercules, Calif.) and Supersignal West Pico ECL reagent (Pierce, Rockford, Ill.).
(§2) In order to determine the target alpha subunits of RGS18, binding experiments were performed using GST-RGS18 as prepared in Example 4 and lysates of human platelets. A similar method has been used to determine the binding specificity of hRGS16 using lysates from Jurkat cells (164). […] For these experiments, platelets were lysed in a Triton X-100 containing buffer and resuspended to 1 mg/ml. The lysate was then treated with GDP, which holds the alpha subunit in the GDP-bound “in-activated” state, or GDP+AlF₄⁻ that mimics the transition state of the Gα subunit. Recombinant GST-RGS18 bound to Sepharose-4 beads was added to the treated lysates, incubated and washed several times. Bound protein was eluted in Laemmli buffer and subjected to SDS-PAGE followed by western blot analysis. A panel of G protein alpha subunit specific antibodies was used to determine which alpha subunits bind to RGS18. […] In contrast, in lysates that have been treated with GDP+AlF₄⁻, RGS18 binds a significant amount of alpha subunit detected by antibodies directed against G_{αi1/2}, G_{α0/i3} and G_{αq/11}. […] Neither GST nor Sepharose 4B alone binds to any of these alpha subunits in either GDP or GDP+AlF₄⁻ treated platelet lysates (data not shown). The binding selectivity of RGS18 is consistent with that found for other RGS proteins which selectively bind to members of the Gαi family and/or Gαq family (14).

[2] = molecular target: T2, Gα12 (endogenous, human platelet lysate) (human, UniProt Q03113 1-381)
T2 construct: mature
T2 sequence (looked up): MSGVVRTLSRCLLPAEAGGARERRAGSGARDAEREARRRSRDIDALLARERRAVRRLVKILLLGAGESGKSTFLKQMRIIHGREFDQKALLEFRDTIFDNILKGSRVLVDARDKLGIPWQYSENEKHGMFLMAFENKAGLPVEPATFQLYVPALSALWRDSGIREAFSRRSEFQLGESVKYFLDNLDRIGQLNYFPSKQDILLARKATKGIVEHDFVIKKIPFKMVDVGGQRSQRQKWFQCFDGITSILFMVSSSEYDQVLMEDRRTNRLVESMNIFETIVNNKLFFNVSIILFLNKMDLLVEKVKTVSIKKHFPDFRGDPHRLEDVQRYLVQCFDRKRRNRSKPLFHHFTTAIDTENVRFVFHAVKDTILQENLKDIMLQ
Protocol: as §1, §2

[3] = molecular target: T3, Gαq (endogenous, human platelet lysate) (human, UniProt P50148 1-359)
T3 construct: mature; also called Gαq/11; alpha subunit detected by antibodies directed against Gαq/11
T3 sequence (looked up): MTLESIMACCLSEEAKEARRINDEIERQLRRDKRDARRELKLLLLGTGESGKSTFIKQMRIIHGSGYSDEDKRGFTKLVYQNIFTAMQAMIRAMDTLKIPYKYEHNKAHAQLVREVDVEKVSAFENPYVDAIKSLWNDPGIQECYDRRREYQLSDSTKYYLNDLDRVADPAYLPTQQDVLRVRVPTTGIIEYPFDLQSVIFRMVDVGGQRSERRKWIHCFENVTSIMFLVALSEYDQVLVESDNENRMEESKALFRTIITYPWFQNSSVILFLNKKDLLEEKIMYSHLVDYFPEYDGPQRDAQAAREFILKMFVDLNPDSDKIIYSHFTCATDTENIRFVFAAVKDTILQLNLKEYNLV
Protocol: as §1, §2

[4] = molecular target: T4, Gαz (endogenous, human platelet lysate) (human, UniProt P19086 2-355)
T4 construct: mature; also called printed once as Gα2
Protocol: as §1, §2

T1 sequence (P63092 2-394): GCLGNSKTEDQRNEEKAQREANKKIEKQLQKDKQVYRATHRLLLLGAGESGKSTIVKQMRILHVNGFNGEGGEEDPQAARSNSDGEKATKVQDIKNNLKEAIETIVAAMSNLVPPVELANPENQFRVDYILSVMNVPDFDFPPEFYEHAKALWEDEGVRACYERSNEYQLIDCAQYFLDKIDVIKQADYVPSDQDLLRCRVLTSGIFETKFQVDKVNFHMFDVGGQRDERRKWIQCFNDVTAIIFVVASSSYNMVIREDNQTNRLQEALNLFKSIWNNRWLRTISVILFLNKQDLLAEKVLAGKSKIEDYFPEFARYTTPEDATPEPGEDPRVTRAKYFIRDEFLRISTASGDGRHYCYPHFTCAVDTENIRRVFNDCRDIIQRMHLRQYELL
T4 sequence (P19086 2-355): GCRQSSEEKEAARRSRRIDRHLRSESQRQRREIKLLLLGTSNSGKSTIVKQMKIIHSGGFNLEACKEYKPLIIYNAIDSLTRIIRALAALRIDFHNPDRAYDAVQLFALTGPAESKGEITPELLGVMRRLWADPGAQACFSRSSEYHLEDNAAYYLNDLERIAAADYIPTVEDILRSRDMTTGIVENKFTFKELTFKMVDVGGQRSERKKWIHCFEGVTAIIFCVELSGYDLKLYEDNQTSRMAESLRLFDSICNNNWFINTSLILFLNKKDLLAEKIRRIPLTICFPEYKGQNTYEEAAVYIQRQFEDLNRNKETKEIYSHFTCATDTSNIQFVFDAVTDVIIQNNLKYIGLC

binding result [1]: no binding
binding result [2]: no binding
binding result [3]: binds
binding result [4]: no binding
B1: GST-RGS18 fusion protein coupled to glutathione-Sepharose 4B (other)
chain: METTLLFFSQINMCESKEKTFFKLIHGSGKEETSKEAKIRAKEKRNRLSLLVQKPEFHEDTRSSRSGHLAKETRVSPEEAVKWGESFDKLLSHRDGLEAFTRFLKTEFSEENIEFWIACEDFKKSKGPQQIHLKAKAIYEKFIQTDAPKEVNLDFHTKEVITNSITQPTLHSFDAAQSRVYQLMEQDSYTRFLKSDIYLDLMEGRPQRPTNLRRRSRSFTCNEFQDVQSDVAIWL
notes: The sense primer carries a few nucleotides upstream of the ATG, so a short extra linker between GST and Met1 is likely; also called recombinant GST-RGS18; GST-tagged fusion protein of RGS18; not shown: glutathione S-transferase (GST) tag encoded by plasmid pGEX-5X-1, N-terminal to RGS18 (in-frame Bam HI fusion); the fili
